IntAct's records for PubMed 23085988

B1: Sorting nexin-8 (Homo sapiens), Q9Y5X2 (parent)
chain: MTGRAMDPLPAAAVGAAAEAEADEEADPPASDLPTPQAIEPQAIVQQVPAPSRMQMPQGNPLLLSHTLQELLARDTVQVELIPEKKGLFLKHVEYEVSSQRFKSSVYRRYNDFVVFQEMLLHKFPYRMVPALPPKRMLGADREFIEARRRALKRFVNLVARHPLFSEDVVLKLFLSFSGSDVQNKLKESAQCVGDEFLNCKLATRAKDFLPADIQAQFAISRELIRNIYNSFHKLRDRAERIASRAIDNAADLLIFGKELSAIGSDTTPLPSWAALNSSTWGSLKQALKGLSVEFALLADKAAQQGKQEENDVVEKLNLFLDLLQSYKDLCERHEKGVLHKHQRALHKYSLMKRQMMSATAQNREPESVEQLESRIVEQENAIQTMELRNYFSLYCLHQETQLIHVYLPLTSHILRAFVNSQIQGHKEMSKVWNDLRPKLSCLFAGPHSTLTPPCSPPEDGLCPH

Variants of: B1
Details: with snx1_human SNX1, Q13596
Chain of snx1_human SNX1, Q13596 (Q13596 whole entry): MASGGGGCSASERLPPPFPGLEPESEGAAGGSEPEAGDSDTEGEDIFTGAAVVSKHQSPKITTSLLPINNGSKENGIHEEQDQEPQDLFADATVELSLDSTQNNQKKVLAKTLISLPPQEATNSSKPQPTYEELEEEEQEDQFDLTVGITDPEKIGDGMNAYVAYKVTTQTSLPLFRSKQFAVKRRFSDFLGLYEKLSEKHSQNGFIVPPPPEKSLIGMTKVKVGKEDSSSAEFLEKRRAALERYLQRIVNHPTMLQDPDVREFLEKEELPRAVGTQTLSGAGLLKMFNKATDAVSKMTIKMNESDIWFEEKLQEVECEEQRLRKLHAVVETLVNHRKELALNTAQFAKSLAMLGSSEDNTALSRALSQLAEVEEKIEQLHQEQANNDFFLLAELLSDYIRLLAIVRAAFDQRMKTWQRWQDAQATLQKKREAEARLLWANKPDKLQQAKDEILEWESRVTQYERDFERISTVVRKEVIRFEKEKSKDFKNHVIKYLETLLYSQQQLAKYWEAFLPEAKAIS

Row | Variant | effect of a mutation on the interaction
1 | E310I | increasing interaction
